Residue numbers refer to the chain shown, from its start.
B1: SEQ ID NO 93 (designed binder, not shown: small tags and cut ends)
chain: MLPAPKNLVVSRVTEDSARLSWTAPDAAFDSFAIEYYEPVPAGEAIYLDVPGSERSYDLTGLKPGTEYDVTIYGVKGGYYSHPLFASFTT
notes: FN3 domain, hit of the apical domain panning
B2: SEQ ID NO 90 (designed binder, not shown: small tags and cut ends)
chain: MLPAPKNLVVSRVTEDSARLSWQGVARAFDSFLITYREQIFAGEVIVLTVPGSERSYDLTGLKPGTEYPVWIQGVKGGSPSAEFTT
notes: as for B1
B3: SEQ ID NO 3 (designed binder, not shown: small tags and cut ends)
chain: MLPAPKNLVVSRVTEDSARLSWTAPDAAFDSFNIEYAETRWYGEAIVLTVPGSERSYDLTGLKPGTEYVVPIDGVKGGIASKPLSAIFTT
notes: as for B1
B4: SEQ ID NO 79 (designed binder, not shown: small tags and cut ends)
chain: B3 chain with N33V, A37T, T39R, R40F, Y42S, V69S, I79Q, A80C, K82T
notes: as for B1
B5: SEQ ID NO 78 (designed binder, not shown: small tags and cut ends)
chain: MLPAPKNLVVSRVTEDSARLSWTAPDAAFDSFGIGYYEHKRFGEAIQLSVPGSERSYDLTGLKPGTEYEVDIEGVKGGVLSWPLFAEFTT
notes: as for B1
B6: SEQ ID NO 59 (designed binder, not shown: small tags and cut ends)
chain: MLPAPKNLVVSRVTEDSARLSWTAPDAAFDSFVYNEVHWIGEAIVLTVPGSERSYDLTGLKPGTEYFVGIYGVKGGHWSKPLSAIFTT
notes: as for B1
B7: SEQ ID NO 61 (designed binder, not shown: small tags and cut ends)
chain: MLPAPKNLVVSRVTEDSARLSWTAPDAAFDSFQIVYSELWIKGEAIVLTVPGSERSYDLTGLKPGTEYQVPIPGVKGGRNSFPLSAIFTT
notes: as for B1
B8: SEQ ID NO 96 (designed binder, not shown: small tags and cut ends)
chain: MSLPAPKNLVVSRVTEDSARLSWTAPDAAFDSFPIAYLEVFYEGEAIVLTVPGSERSYDLTGLKPGTEYQVPIEGVKGGAMSLPLSAIFTT
notes: as for B1
B9: SEQ ID NO 50 (designed binder, not shown: small tags and cut ends)
chain: MSLPAPKNLVVSRVTEDSARLSWTAPDAAFDSFTIHYREFQLSGEAIVLTVPGSERSYDLTGLKPGTEYDVPIEGVKGGPGSRPLSAIFTT
notes: as for B1
B10: SEQ ID NO 80 (designed binder, not shown: small tags and cut ends)
chain: MLPAPKNLVVSRVTEDSARLSWTAPDAAFDSFWIDYEEEGVIGEAIYLHVPGSERSYDLTGLKPGTEYVVKIHGVKGGHPSHPLVAVFTT
notes: as for B1
B11: SEQ ID NO 63 (designed binder, not shown: small tags and cut ends)
chain: MLPAPKNLVVSRVTEDSARLSWTAPDAAFDSFCISYYERMGRGEAIVLTVPGSERSYDLTGLKPGTEYMVYIFGVKGGLNSLPLSAIFTT
notes: as for B1
B12: SEQ ID NO 98 (designed binder, not shown: small tags and cut ends)
chain: MLPAPKNLVVSRVTEDSARLSWTAPDAAFDSFGIAYDEWPEFGEAIVLTVPGSERSYDLTGLKPDTEYIVEIYGVKGGWFSWPLSAIFTT
notes: as for B1
B13: SEQ ID NO 58 (designed binder, not shown: small tags and cut ends)
chain: MLPAPKNLVVSRVTEDSARLSWTAPDAAFDSFHIEYLELSRHGEAIVLTVPGSERSYDLTGLKPGTEYWVMIFGVKGGGPSKPLSAIFTT
notes: as for B1
B14: SEQ ID NO 71 (designed binder, not shown: small tags and cut ends)
chain: B13 chain with H33P, E35S, R41L, H42Y, W69P, M71G, F73A, G79V, P80V, K82R
notes: as for B1
B15: SEQ ID NO 101 (designed binder, not shown: small tags and cut ends)
chain: MLPAPKNLVVSRVTEDSARLSWTAPDAAFDSFHILYEELFLVGEAIVLTVPGSERSYDLTGLKPGTEYKVPISGVKGGPVSRPLSAIFTT
notes: as for B1
B16: SEQ ID NO 91 (designed binder, not shown: small tags and cut ends)
chain: MLPAPKNLVVSRVTEDSARLSWTAPDAAFDSFQIHYWETQGFGEAIVLTVPGSERSYDLTGLKPGTEYPVLIPGVKGGPSSLPLSAIFTT
notes: as for B1
B17: SEQ ID NO 75 (designed binder, not shown: small tags and cut ends)
chain: MLPAPKNLVVSRVTEDSARLSWTAPDAAFDSFTISYGEEALIGEAIYLRVPGSERSYDLTGLKPGTEYYVHIEGVKGGSWSQPLAAAFTT
notes: as for B1
B18: SEQ ID NO 66 (designed binder, not shown: small tags and cut ends)
chain: MLPAPKNLVVSRVTEDSARLSWTAPDAAFDSFTIDYDEPRSPGEAIVLTVPGSERSYDLTGLKPGTEYRVFIWGIKGGDTSFPLSAIFTT
notes: as for B1
B19: SEQ ID NO 87 (designed binder, not shown: small tags and cut ends)
chain: MLPAPKNLVVSRVTEDSARLSWTAPDAAFDSFAIEYTEFLYSGEAIVLTVPGSERSYDLTGLKPGTEYGVPINGVKGGFVSPPLSAIVTT
notes: as for B1
B20: SEQ ID NO 2 (designed binder, not shown: small tags and cut ends)
chain: MLPAPKNLVVSEVTEDSARLSWQGVARAFDSFMINYSELFWMGEAIVLTVPGSERSYDLTGLKPGTEYVVRIKGVKGGKGSWPLHAHFTT
notes: as for B1
B21: SEQ ID NO 6 (designed binder, not shown: small tags and cut ends)
chain: MLPAPKNLVVSRVTEDSARLSWTAPDAAFDSFPIIYMETFSRGEAIVLTVPGSERSYDLTGLKPGTEYRVPIGGVKGGSSSCPLSAIFTT
notes: as for B1
B22: SEQ ID NO 10 (designed binder, not shown: small tags and cut ends)
chain: B3 chain with N33K, E35A, A37I, R40A, W41T, Y42R, D73P, I79N, A80T, K82S
notes: as for B1
B23: SEQ ID NO 62 (designed binder, not shown: small tags and cut ends)
chain: B21 chain with P33K, I35R, M37T, F40R, R42I, R69C, S79D, C82W, F88S
notes: as for B1
B24: SEQ ID NO 67 (designed binder, not shown: small tags and cut ends)
chain: MLPAPKNLVVSRVTEDSARLSWTAPDAAFDSFTILYAEQAQFGEAIVLTVPGSERSYDLTGLKPGTEYPITGVKGGTRSGPLSAISTT
notes: as for B1
B25: SEQ ID NO 69 (designed binder, not shown: small tags and cut ends)
chain: MLPAPKNLVVSRVTEDSARLSWTAPDAAFDSFHIAYEETATSGEAIYLRVPGSERSYDLTGLKPGTEYGVEIEGVKGGARSRPLYADFTT
notes: as for B1
B26: SEQ ID NO 48 (designed binder, not shown: small tags and cut ends)
chain: MLPAPKNLVVSRVTEDSARLSWTAPDAAFDSFLIYYEEGYLEYYYSGEAIVLTVPGSERSYDLTGLKPGTEYYVGIVGVKGGGLSGPLSAISTT
notes: as for B1
B27: SEQ ID NO 14 (designed binder, not shown: small tags and cut ends)
chain: MLPAPKNLVVSRVTEDSARLSWTAPDAAFDSFPIYYVENVVWGEAIVLTVPGSERSYDLTGLKPGTEYWEVIIGVKGGQCSRPLSAIFTT
notes: as for B1
B28: SEQ ID NO 76 (designed binder, not shown: small tags and cut ends)
chain: MLPAPKNLVVSRVTEDSARLSWTAPDAAFDSFTIEYYENIGIGEAIVLTVPGSERSYDLTGLKPGTEYSVPIVGVKGGPYSHPLSAIFTT
notes: as for B1
B29: SEQ ID NO 29 (designed binder, not shown: small tags and cut ends)
chain: B16 chain with Q33W, H35E, T39A, Q40V, P69F, L71G, P73Y, P79Y, S80L, L82A
notes: as for B1
B30: SEQ ID NO 54 (designed binder, not shown: small tags and cut ends)
chain: B28 chain with T33A, E35A, Y37G, N39H, G41V, S69M, V73A, Y80I, H82L
notes: as for B1
B31: SEQ ID NO 85 (designed binder, not shown: small tags and cut ends)
chain: B28 chain with T33I, Y37F, N39P, G41P, S69A, P71N, V73Y, P79Y, Y80L
notes: as for B1
B32: SEQ ID NO 16 (designed binder, not shown: small tags and cut ends)
chain: MLPAPKNLVVSRVTEDSARLSWTAPDAAFDSFGIAYREFRPSGEAIVLTVPGSERSYDLTVETGYRNEVVICGVKGGPWSGPLSAIFTT
notes: as for B1
B33: SEQ ID NO 97 (designed binder, not shown: small tags and cut ends)
chain: MLPAPKNLVVSRVTEDSARLSWTAPDAAFDSFHIWYEEETTIGEAIYLHVPGSERSYDLTGLKPGTEYEVHITGVKGGPYSRPLFANFTT
notes: as for B1
B34: SEQ ID NO 74 (designed binder, not shown: small tags and cut ends)
chain: MLPAPKNLVVSRVTEDSARLSWTAPDAAFDSFSITYLEWWNLGEAIVLTVPGSERSYDLTGLKPGTEYMVTIPGVKGGMSSYPLSAIFTT
notes: as for B1
B35: SEQ ID NO 100 (designed binder, not shown: small tags and cut ends)
chain: B34 chain with S33Y, T35W, L37E, W39V, W40M, N41Y, M69N, T71P, M79H, Y82P
notes: as for B1
B36: SEQ ID NO 89 (designed binder, not shown: small tags and cut ends)
chain: MLPAPENLVVSRVTEDSARLSWTAPDAAFDSFWIEYYEGVIQGEAIVLTVPGSERSYDLTGLKPGTEYFVAIWGVKGGKWSVPLSAIFTT
notes: as for B1
B37: SEQ ID NO 20 (designed binder, not shown: small tags and cut ends)
chain: MLPAPKNLVVARVTEDSARLSWTAPDAAIDSFPIDYSEYWWGGEAIVLTVPGSERSYDLTGLKPGTEYPVLITGVKGGYRSGPLSAIFTT
notes: as for B1

These binders were tested against T1, recombinant biotinylated CD71 extracellular domain (Sino Biologics) with an N-terminal 6His tag (human, UniProt P02786 89-760, biotinylated (site not stated)) (assay: primary solution ELISA screen).
T1 construct: extracellular domain; also called hCD71; huCD71 ECD
T1 sequence (P02786 other isoform, or with tags, fused parts or gaps): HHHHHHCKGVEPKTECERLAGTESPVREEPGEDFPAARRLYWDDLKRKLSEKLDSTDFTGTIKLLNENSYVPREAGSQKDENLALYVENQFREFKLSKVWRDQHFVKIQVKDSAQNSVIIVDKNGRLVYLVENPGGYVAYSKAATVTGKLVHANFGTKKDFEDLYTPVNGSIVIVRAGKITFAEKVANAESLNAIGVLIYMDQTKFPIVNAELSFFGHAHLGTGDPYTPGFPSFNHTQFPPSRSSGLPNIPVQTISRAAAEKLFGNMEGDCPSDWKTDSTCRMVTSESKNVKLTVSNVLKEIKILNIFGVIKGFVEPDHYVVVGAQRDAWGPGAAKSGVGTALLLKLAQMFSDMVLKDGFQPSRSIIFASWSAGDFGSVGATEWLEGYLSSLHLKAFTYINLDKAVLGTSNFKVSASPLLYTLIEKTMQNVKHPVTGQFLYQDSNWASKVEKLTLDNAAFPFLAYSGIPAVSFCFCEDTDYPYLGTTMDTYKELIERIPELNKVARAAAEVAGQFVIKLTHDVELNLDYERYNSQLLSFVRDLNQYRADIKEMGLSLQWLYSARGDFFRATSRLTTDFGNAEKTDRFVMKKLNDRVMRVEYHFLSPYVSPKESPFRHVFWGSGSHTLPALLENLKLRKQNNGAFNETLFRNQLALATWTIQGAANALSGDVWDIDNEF

| RLU [RLU] | Binder |
| --- | --- |
| 430000 | B1 |
| 564000 | B2 |
| 687000 | B3 |
| 273000 | B4 |
| 271000 | B5 |
| 1.11e+06 | B6 |
| 252000 | B7 |
| 726000 | B8 |
| 321000 | B9 |
| 844000 | B10 |
| 4.71e+06 | B11 |
| 1.31e+06 | B12 |
| 1.04e+06 | B13 |
| 2.64e+06 | B14 |
| 336000 | B15 |
| 491000 | B16 |
| 530000 | B17 |
| 232000 | B18 |
| 282000 | B19 |

| RLU [RLU] | Binder |
| --- | --- |
| 383000 | B20 |
| 315000 | B21 |
| 788000 | B22 |
| 229000 | B23 |
| 1.85e+06 | B24 |
| 3.17e+06 | B25 |
| 3.04e+06 | B26 |
| 1.4e+06 | B27 |
| 674000 | B28 |
| 2.17e+06 | B29 |
| 579000 | B30 |
| 210000 | B31 |
| 657000 | B32 |
| 957000 | B33 |
| 824000 | B34 |
| 408000 | B35 |
| 919000 | B36 |
| 791000 | B37 |

What follows are binders tested against T1, recombinant biotinylated CD71 … (assay: primary solution ELISA screen, signal on hCD71 over HSA).

| hCD71:HSA | Binder |
| --- | --- |
| 91 | B1 |
| 46 | B2 |
| 69 | B3 |
| 46 | B4 |
| 29 | B5 |
| 68 | B6 |
| 19 | B7 |
| 48 | B8 |
| 20 | B9 |
| 25 | B10 |
| 826 | B11 |
| 117 | B12 |
| 101 | B13 |
| 96 | B14 |
| 73 | B15 |
| 74 | B16 |
| 143 | B17 |
| 29 | B18 |
| 77 | B19 |

| hCD71:HSA | Binder |
| --- | --- |
| 14 | B20 |
| 43 | B21 |
| 27 | B22 |
| 28 | B23 |
| 131 | B24 |
| 1170 | B25 |
| 26 | B26 |
| 1280 | B27 |
| 41 | B28 |
| 580 | B29 |
| 49 | B30 |
| 33 | B31 |
| 95 | B32 |
| 147 | B33 |
| 56 | B34 |
| 79 | B35 |
| 141 | B36 |
| 43 | B37 |

Reference: patent publication US20220332795A1 (ARO BIOTHERAPEUTICS, published 2022)
